Experimental data reported in PMC7481404.

Target: PARK2 (UniProt O60260)
Assay: co-IP of Flag-PARK2 and Myc-BCL-2
Settings: reference: wild type Myc-BCL-2; sites S70

## BCL-2 (from UniProt P10415) S70A
  binding against the reference: lost
